Key:
Assay in all cases: holdup assay
Design in all cases: key: below the threshold = too weak to quantify, mostly under pKd 3.1 to 4
Details in all cases: plain residues with an end cap or a label only (N-terminal biotin on a linker: ado-ado)
GRID2IP_2, A4D2P6 = biological target: GRID2IP_2, A4D2P6
HTRA4, P83105 = biological target: T1, HTRA4, P83105
T1 sequence (P83105 378-476, limits assumed, looked up): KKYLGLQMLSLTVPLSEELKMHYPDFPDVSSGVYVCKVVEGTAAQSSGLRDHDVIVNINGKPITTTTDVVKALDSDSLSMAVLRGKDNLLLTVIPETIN

GRIP2_6, Q9C0E4 = biological target: GRIP2_6, Q9C0E4
RAPGEF6, Q8TEU7 = biological target: T2, RAPGEF6, Q8TEU7
T2 sequence (Q8TEU7 525-625, limits assumed, looked up): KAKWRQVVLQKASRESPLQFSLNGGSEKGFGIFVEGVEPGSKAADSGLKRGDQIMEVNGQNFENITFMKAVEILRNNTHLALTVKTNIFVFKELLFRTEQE

DLG5_1, Q8TDM6 = biological target: DLG5_1, Q8TDM6
LNX2_2, Q8N448 = biological target: T3, LNX2_2, Q8N448
T3 sequence (Q8N448 334-432, limits assumed, looked up): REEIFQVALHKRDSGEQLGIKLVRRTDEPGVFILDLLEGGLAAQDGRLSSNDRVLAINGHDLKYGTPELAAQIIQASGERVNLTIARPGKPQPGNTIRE

MAGI1_2, Q96QZ7 = biological target: MAGI1_2, Q96QZ7
SNX27, Q96L92 = biological target: SNX27, Q96L92
MAGI2_5, Q86UL8 = biological target: MAGI2_5, Q86UL8
Inadl_3, Q8NI35 = biological target: Inadl_3, Q8NI35
CARD11, Q9BXL7 = biological target: T4, CARD11, Q9BXL7
T4 sequence (Q9BXL7 662-765, limits assumed, looked up): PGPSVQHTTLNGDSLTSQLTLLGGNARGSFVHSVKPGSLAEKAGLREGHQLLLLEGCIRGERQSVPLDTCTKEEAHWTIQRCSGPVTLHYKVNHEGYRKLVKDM

DVL3, Q92997 = biological target: T5, DVL3, Q92997
T5 sequence (Q92997 244-331, limits assumed, looked up): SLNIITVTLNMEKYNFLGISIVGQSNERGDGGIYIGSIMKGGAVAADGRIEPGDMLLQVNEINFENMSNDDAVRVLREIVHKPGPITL

NOS1, P29475 = biological target: NOS1, P29475
ARHGEF11, O15085 = biological target: T6, ARHGEF11, O15085
T6 sequence (O15085 42-136, limits assumed, looked up): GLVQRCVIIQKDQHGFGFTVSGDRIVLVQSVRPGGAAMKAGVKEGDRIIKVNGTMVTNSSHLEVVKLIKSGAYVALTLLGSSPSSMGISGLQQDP

FRMPD1, Q5SYB0 = biological target: T7, FRMPD1, Q5SYB0
T7 sequence (Q5SYB0 52-145, limits assumed, looked up): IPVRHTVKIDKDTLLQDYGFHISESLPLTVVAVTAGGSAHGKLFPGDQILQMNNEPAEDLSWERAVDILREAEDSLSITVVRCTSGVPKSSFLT

GORASP1, Q9BQQ3 = biological target: GORASP1, Q9BQQ3
PDZRN3_1, Q9UPQ7 = biological target: T8, PDZRN3_1, Q9UPQ7
T8 sequence (Q9UPQ7 244-349, limits assumed, looked up): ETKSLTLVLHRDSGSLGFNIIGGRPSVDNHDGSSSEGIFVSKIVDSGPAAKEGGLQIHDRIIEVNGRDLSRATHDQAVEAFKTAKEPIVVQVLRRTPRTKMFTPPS

NHERF4_2, Q86UT5 = biological target: NHERF4_2, Q86UT5
LNX2_3, Q8N448 = biological target: T9, LNX2_3, Q8N448
T9 sequence (Q8N448 463-564, limits assumed, looked up): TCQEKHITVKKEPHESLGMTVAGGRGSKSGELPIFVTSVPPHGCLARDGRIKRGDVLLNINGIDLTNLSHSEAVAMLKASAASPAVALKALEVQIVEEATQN

GRIP1_4, Q9Y3R0 = biological target: T10, GRIP1_4, Q9Y3R0
T10 sequence (Q9Y3R0 467-571, limits assumed, looked up): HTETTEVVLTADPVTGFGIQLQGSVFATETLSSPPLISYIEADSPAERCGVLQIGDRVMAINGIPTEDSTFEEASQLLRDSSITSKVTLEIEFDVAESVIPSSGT

PTPN13_1, Q12923 = biological target: T11, PTPN13_1, Q12923
T11 sequence (Q12923 1088-1188, limits assumed, looked up): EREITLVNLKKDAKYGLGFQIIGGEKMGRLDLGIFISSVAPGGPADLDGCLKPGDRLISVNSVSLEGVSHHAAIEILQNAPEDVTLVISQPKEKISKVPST

PDZD2_2, O15018 = biological target: T12, PDZD2_2, O15018
T12 sequence (O15018 329-429, limits assumed, looked up): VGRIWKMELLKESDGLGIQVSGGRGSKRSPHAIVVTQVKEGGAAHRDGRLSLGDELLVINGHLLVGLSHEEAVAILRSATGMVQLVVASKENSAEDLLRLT

LNX1_3, Q8TBB1 = biological target: LNX1_3, Q8TBB1
GRIP2_3, Q9C0E4 = biological target: GRIP2_3, Q9C0E4
LIMK2, P53671 = biological target: LIMK2, P53671
PARD3_3, Q8TEW0 = biological target: PARD3_3, Q8TEW0
Chain of PARD3_3, Q8TEW0 (Q8TEW0 582-685): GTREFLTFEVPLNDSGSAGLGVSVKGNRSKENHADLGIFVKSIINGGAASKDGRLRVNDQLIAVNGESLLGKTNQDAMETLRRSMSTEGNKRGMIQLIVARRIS

Chain of GORASP1, Q9BQQ3 (Q9BQQ3 1-208): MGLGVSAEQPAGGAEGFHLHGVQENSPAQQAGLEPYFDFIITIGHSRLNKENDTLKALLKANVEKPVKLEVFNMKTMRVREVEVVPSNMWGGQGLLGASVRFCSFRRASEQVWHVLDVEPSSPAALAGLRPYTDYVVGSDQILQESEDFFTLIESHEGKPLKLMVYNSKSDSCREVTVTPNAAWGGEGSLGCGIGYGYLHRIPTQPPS
Chain of LNX1_3, Q8TBB1 (Q8TBB1 500-596): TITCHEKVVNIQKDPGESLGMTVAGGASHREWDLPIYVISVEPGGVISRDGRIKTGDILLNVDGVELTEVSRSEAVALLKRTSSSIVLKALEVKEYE
Chain of GRIP2_3, Q9C0E4 (Q9C0E4 238-339): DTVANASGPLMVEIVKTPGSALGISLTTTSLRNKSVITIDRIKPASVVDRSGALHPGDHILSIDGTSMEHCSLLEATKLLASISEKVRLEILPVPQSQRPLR
Chain of GRIP2_6, Q9C0E4 (Q9C0E4 648-740): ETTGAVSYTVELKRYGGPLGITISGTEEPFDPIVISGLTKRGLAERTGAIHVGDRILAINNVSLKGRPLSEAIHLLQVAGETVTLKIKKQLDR
Chain of Inadl_3, Q8NI35 (Q8NI35 359-469): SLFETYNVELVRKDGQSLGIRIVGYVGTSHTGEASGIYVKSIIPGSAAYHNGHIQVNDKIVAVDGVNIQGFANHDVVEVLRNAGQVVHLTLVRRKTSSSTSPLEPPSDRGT
Chain of NOS1, P29475 (P29475 9-101): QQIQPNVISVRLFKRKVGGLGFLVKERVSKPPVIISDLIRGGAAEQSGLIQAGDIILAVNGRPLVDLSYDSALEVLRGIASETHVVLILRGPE
Chain of NHERF4_2, Q86UT5 (Q86UT5 220-308): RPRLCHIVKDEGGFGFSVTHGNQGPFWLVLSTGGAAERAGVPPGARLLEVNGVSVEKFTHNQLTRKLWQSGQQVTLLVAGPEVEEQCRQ
Chain of MAGI1_2, Q96QZ7 (Q96QZ7 456-580): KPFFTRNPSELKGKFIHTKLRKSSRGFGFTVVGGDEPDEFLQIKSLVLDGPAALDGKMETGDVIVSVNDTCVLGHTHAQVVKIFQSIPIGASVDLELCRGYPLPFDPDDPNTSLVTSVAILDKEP
Chain of GRID2IP_2, A4D2P6 (A4D2P6 272-370): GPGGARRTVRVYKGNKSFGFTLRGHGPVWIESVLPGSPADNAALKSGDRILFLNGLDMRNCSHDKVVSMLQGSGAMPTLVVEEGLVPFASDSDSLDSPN
Chain of LIMK2, P53671 (P53671 143-248): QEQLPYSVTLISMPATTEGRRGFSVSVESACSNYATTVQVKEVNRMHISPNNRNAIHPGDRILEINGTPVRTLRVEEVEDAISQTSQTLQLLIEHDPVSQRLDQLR
Chain of DLG5_1, Q8TDM6 (Q8TDM6 617-713): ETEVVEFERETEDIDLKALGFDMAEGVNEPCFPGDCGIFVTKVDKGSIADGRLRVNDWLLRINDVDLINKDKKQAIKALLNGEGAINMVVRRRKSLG
Chain of MAGI2_5, Q86UL8 (Q86UL8 915-1017): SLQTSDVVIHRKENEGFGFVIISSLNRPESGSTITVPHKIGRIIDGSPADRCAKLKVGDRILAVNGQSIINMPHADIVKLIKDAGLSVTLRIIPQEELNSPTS

Q: What does the source list for KPGKGSETVV [FZD4, Q9ULV1]?
A: pKd (GRID2IP_2, A4D2P6): below the threshold; pKd (HTRA4, P83105): below the threshold; pKd (GRIP2_6, Q9C0E4): below the threshold; pKd (RAPGEF6, Q8TEU7): below the threshold; pKd (DLG5_1, Q8TDM6): 3.54; pKd (LNX2_2, Q8N448): 4.92; pKd (MAGI1_2, Q96QZ7): 4.47; pKd (SNX27, Q96L92): 4.62; pKd (MAGI2_5, Q86UL8): 3.55; pKd (Inadl_3, Q8NI35): 3.55; pKd (CARD11, Q9BXL7): below the threshold; pKd (DVL3, Q92997): below the threshold; pKd (NOS1, P29475): 3.81; pKd (ARHGEF11, O15085): 3.69; pKd (FRMPD1, Q5SYB0): below the threshold; pKd (GORASP1, Q9BQQ3): 3.78; pKd (PDZRN3_1, Q9UPQ7): 3.71; pKd (NHERF4_2, Q86UT5): below the threshold; pKd (LNX2_3, Q8N448): below the threshold; pKd (GRIP1_4, Q9Y3R0): below the threshold; pKd (PTPN13_1, Q12923): below the threshold; pKd (PDZD2_2, O15018): 3.76; pKd (LNX1_3, Q8TBB1): below the threshold; pKd (GRIP2_3, Q9C0E4): below the threshold; pKd (LIMK2, P53671): below the threshold; pKd (PARD3_3, Q8TEW0): below the threshold

Q: For AAVENKVTDL [PLXNB1, O43157], which pKd (GRID2IP_2, A4D2P6) is on record?
A: The pKd was 4.56.

Q: And the pKd (HTRA4, P83105)?
A: Its pKd is “below the threshold”.

Q: What about the pKd (GRIP2_6, Q9C0E4) of the same binder?
A: Its pKd is “below the threshold”.

Q: And the pKd (RAPGEF6, Q8TEU7)?
A: The pKd was “below the threshold”.

Q: And the pKd (DLG5_1, Q8TDM6)?
A: The pKd was “below the threshold”.

Q: And the pKd (LNX2_2, Q8N448)?
A: Its pKd is “below the threshold”.

Q: What about the pKd (MAGI1_2, Q96QZ7) of the same binder?
A: Its pKd is “below the threshold”.

Q: What about the pKd (SNX27, Q96L92) of the same binder?
A: Its pKd is 4.12.

Q: And the pKd (MAGI2_5, Q86UL8)?
A: Its pKd is “below the threshold”.

Q: What about the pKd (Inadl_3, Q8NI35) of the same binder?
A: The pKd was “below the threshold”.

Q: What about the pKd (CARD11, Q9BXL7) of the same binder?
A: Its pKd is “below the threshold”.

Q: What about the pKd (DVL3, Q92997) of the same binder?
A: The pKd was “below the threshold”.

Q: And the pKd (NOS1, P29475)?
A: The pKd was “below the threshold”.

Q: What about the pKd (ARHGEF11, O15085) of the same binder?
A: Its pKd is 4.65.

Q: And the pKd (FRMPD1, Q5SYB0)?
A: Its pKd is “below the threshold”.

Q: And the pKd (GORASP1, Q9BQQ3)?
A: The pKd was “below the threshold”.

Q: And the pKd (PDZRN3_1, Q9UPQ7)?
A: Its pKd is “below the threshold”.

Q: What about the pKd (NHERF4_2, Q86UT5) of the same binder?
A: Its pKd is “below the threshold”.

Q: What about the pKd (LNX2_3, Q8N448) of the same binder?
A: The pKd was “below the threshold”.

Q: And the pKd (GRIP1_4, Q9Y3R0)?
A: The pKd was “below the threshold”.

Q: And the pKd (PTPN13_1, Q12923)?
A: Its pKd is “below the threshold”.

Q: And the pKd (PDZD2_2, O15018)?
A: Its pKd is 4.65.

Q: What about the pKd (LNX1_3, Q8TBB1) of the same binder?
A: Its pKd is “below the threshold”.

Q: And the pKd (GRIP2_3, Q9C0E4)?
A: Its pKd is “below the threshold”.

Q: What about the pKd (LIMK2, P53671) of the same binder?
A: Its pKd is “below the threshold”.

Q: What about the pKd (PARD3_3, Q8TEW0) of the same binder?
A: The pKd was “below the threshold”.

Q: Which pKd (GRID2IP_2, A4D2P6) does the source give for PYPTADHMLA [JUP, P14923] here?
A: Its pKd is “below the threshold”.

Q: And the pKd (HTRA4, P83105)?
A: The pKd was “below the threshold”.

Q: And the pKd (GRIP2_6, Q9C0E4)?
A: The pKd was “below the threshold”.

Q: And the pKd (RAPGEF6, Q8TEU7)?
A: Its pKd is “below the threshold”.

Q: And the pKd (DLG5_1, Q8TDM6)?
A: Its pKd is “below the threshold”.

Q: And the pKd (LNX2_2, Q8N448)?
A: Its pKd is “below the threshold”.

Q: What about the pKd (MAGI1_2, Q96QZ7) of the same binder?
A: The pKd was “below the threshold”.

Q: What about the pKd (SNX27, Q96L92) of the same binder?
A: Its pKd is “below the threshold”.

Q: And the pKd (MAGI2_5, Q86UL8)?
A: The pKd was “below the threshold”.

Q: What about the pKd (Inadl_3, Q8NI35) of the same binder?
A: Its pKd is “below the threshold”.

Q: And the pKd (CARD11, Q9BXL7)?
A: The pKd was “below the threshold”.

Q: And the pKd (DVL3, Q92997)?
A: The pKd was “below the threshold”.

Q: What about the pKd (NOS1, P29475) of the same binder?
A: The pKd was “below the threshold”.

Q: And the pKd (ARHGEF11, O15085)?
A: The pKd was “below the threshold”.

Q: And the pKd (FRMPD1, Q5SYB0)?
A: Its pKd is “below the threshold”.

Q: What about the pKd (GORASP1, Q9BQQ3) of the same binder?
A: Its pKd is “below the threshold”.

Q: And the pKd (PDZRN3_1, Q9UPQ7)?
A: Its pKd is “below the threshold”.

Q: What about the pKd (NHERF4_2, Q86UT5) of the same binder?
A: Its pKd is “below the threshold”.

Q: And the pKd (LNX2_3, Q8N448)?
A: Its pKd is “below the threshold”.

Q: What about the pKd (GRIP1_4, Q9Y3R0) of the same binder?
A: Its pKd is “below the threshold”.

Q: And the pKd (PTPN13_1, Q12923)?
A: Its pKd is “below the threshold”.

Q: What about the pKd (PDZD2_2, O15018) of the same binder?
A: The pKd was “below the threshold”.

Q: What about the pKd (LNX1_3, Q8TBB1) of the same binder?
A: The pKd was “below the threshold”.

Q: What about the pKd (GRIP2_3, Q9C0E4) of the same binder?
A: The pKd was “below the threshold”.

Q: And the pKd (LIMK2, P53671)?
A: The pKd was “below the threshold”.

Q: What about the pKd (PARD3_3, Q8TEW0) of the same binder?
A: Its pKd is “below the threshold”.

Q: Which results are given for TRKRSGEAAV [PFKM, P08237]?
A: pKd (GRID2IP_2, A4D2P6): below the threshold; pKd (HTRA4, P83105): below the threshold; pKd (GRIP2_6, Q9C0E4): below the threshold; pKd (RAPGEF6, Q8TEU7): below the threshold; pKd (DLG5_1, Q8TDM6): below the threshold; pKd (LNX2_2, Q8N448): 3.53; pKd (MAGI1_2, Q96QZ7): below the threshold; pKd (SNX27, Q96L92): 3.83; pKd (MAGI2_5, Q86UL8): below the threshold; pKd (Inadl_3, Q8NI35): below the threshold; pKd (CARD11, Q9BXL7): below the threshold; pKd (DVL3, Q92997): below the threshold; pKd (NOS1, P29475): 4.16; pKd (ARHGEF11, O15085): below the threshold; pKd (FRMPD1, Q5SYB0): below the threshold; pKd (GORASP1, Q9BQQ3): below the threshold; pKd (PDZRN3_1, Q9UPQ7): below the threshold; pKd (NHERF4_2, Q86UT5): below the threshold; pKd (LNX2_3, Q8N448): below the threshold; pKd (GRIP1_4, Q9Y3R0): below the threshold; pKd (PTPN13_1, Q12923): below the threshold; pKd (PDZD2_2, O15018): below the threshold; pKd (LNX1_3, Q8TBB1): below the threshold; pKd (GRIP2_3, Q9C0E4): below the threshold; pKd (LIMK2, P53671): below the threshold; pKd (PARD3_3, Q8TEW0): below the threshold
